Three molecules from PMC11147762 can be followed below.

Series [1] deals with T1, DDX41-ΔHel-WT (DDX41 D3) (Homo sapiens, UniProt Q9UJV9 1-406+568-622, internal_change). Kind of series: EMSA; EMSA, 0-1300 nM protein with 10 nM nucleic acid; buffer, salt, pH and temperature not in material. Conditions: protein: recombinant, label: 5'-Cy5 on oligo1.
In series [2] the target is DDX41-R525H (Homo sapiens, UniProt Q9UJV9 1-622, R525H). The series is described as above. Conditions: protein: recombinant; label: 5'-Cy5 on oligo1; 5'-Cy3 on RNA; bubble of oligo1/oligo2 with 25-nt RNA paired to oligo2.
Chain of DDX41-R525H (Q9UJV9 whole entry R525H): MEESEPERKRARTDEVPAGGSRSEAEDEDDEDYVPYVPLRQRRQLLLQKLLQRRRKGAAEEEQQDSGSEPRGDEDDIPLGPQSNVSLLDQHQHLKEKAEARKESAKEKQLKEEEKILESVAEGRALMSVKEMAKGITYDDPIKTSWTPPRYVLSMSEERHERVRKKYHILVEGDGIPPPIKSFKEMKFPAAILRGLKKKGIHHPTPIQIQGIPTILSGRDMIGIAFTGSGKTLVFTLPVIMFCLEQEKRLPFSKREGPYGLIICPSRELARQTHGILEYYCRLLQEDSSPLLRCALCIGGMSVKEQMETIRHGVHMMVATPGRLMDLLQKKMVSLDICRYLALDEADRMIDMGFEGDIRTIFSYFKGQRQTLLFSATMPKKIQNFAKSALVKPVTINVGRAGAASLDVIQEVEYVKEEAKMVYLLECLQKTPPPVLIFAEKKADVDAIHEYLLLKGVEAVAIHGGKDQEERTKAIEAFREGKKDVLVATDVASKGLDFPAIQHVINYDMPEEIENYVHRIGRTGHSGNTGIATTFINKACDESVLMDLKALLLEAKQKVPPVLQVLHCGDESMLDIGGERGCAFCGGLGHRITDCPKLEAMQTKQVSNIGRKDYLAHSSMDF
The target of series [3] is DDX41-ΔHel-Y259C (Homo sapiens, UniProt Q9UJV9 1-406+568-622, Y259C;internal_change). Described as above. Conditions: protein: recombinant; label: 5'-Cy5 on oligo1; 5'-Cy3 on RNA; bubble of oligo1/oligo2 with 25-nt RNA paired to oligo2.
Chain of DDX41-ΔHel-Y259C (Q9UJV9 other isoform, or with tags, fused parts or gaps Y259C/| Y259C Y259C): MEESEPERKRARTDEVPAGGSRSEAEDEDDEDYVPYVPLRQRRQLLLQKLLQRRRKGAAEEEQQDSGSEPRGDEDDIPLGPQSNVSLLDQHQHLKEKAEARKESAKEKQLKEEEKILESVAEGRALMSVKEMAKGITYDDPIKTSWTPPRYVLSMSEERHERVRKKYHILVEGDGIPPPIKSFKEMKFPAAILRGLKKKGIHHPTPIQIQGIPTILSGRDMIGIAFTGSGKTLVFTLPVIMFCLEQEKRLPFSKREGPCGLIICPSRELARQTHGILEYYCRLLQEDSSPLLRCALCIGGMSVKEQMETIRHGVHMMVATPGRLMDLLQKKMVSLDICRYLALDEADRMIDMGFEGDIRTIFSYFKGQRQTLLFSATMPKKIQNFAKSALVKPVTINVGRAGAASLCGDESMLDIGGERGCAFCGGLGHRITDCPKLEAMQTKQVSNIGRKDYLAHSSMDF
In series [4] the target is T1, DDX41-ΔHel-WT (DDX41 D3). Kind of series: EMSA; m6A had no effect on affinity; EMSA, 0-1300 nM protein with 10 nM nucleic acid; buffer, salt, pH and temperature not in material. Conditions: protein: recombinant; label: 5'-Cy5 on oligo1; 5'-Cy3 on RNA; bubble of oligo1/oligo2 with 25-nt RNA paired to oligo2.

T1 sequence (Q9UJV9 other isoform, or with tags, fused parts or gaps | mutant): as the sequence (Q9UJV9 other isoform, or with tags, fused parts or gaps Y259C/| Y259C Y259C) above, with C259Y counted along it

B1: R-loop (mixed)
DNA 1: GCCAGGGACGAGGTGAACCTGCAGGTGGGCGGCTACTACTTAGATGTCATCCGAGGCTTATTGGTAGAATTCGGCAGCGTCATGCGACGGC
DNA 2: GCCGTCGCATGACGCTGCCGAATTCTACCACGCGATTCATACCTGTCGTGCCAGCTGCTTTGCCCACCTGCAGGTTCACCTCGTCCCTGGC
RNA: GCAGCUGGCACGACAGGUAUGAAUC
For B1, the binding result in series [1] (5'-Cy3 on RNA, bubble of oligo1/oligo2 with 25-nt RNA paired to oligo2) was “binds”; in series [2], “binds”; in series [3] it was “binds”.

B2: D-loop (structured_DNA)
DNA 1: B1 DNA 1
DNA 2: B1 DNA 2
DNA 3: GCAGCTGGCACGACAGGTATGAATC
As to B2, the binding result in series [1] (bubble with 25-nt DNA paired to oligo2) is “binds”.

B3: m6A R-loop (mixed)
DNA 1: B1 DNA 1
DNA 2: B1 DNA 2
RNA: GCAGCUGGCACGACAGGUAUGAAUC
modifications: m6A in RNA strand; positions not visible in material
For B3, in series [4], the binding result is listed as “binds”.
